The target of this test is SpyDock (SpyCatcher2.1 S49C E77A), carbamidomethylated. Kind of test: ITC; 20 μM carbamidomethylated SpyDock in the cell, 20 injections of 210 μM SpyTag-MBP or SpyTag002-MBP from the syringe; 25 °C; 20 mM HEPES pH 7.0, 150 mM NaCl; 1:1 binding model. In general terms: Isothermal titration calorimetry measures the heat released or taken up as one component is titrated into another.

SpyTag002-MBP: the Kd was found to be 73 nM and the stoichiometry N was determined as 1.

SpyTag-MBP registered a Kd of 750 nM and a stoichiometry N of 1.

Usually Kd stands for the concentration at which binding is half-saturated. A low value points to higher affinity. As a reminder, the stoichiometry N is a count of units in the complex or per binding partner.
